Measured values as given in patent publication US7423017B2, “Method for treating cartilage disorders” (Genentech, Inc., priority 1997, dated 2008).

What was measured:
IGFBP-1 [1] = assay: competitive phage ELISA of IGF-1 mutants, IGFBP-1; format: binding, human; conditions: relative IC50 IGFBP-1/relative IC50 IGFBP-3
Method: (§1) An alanine-scanning mutagenesis approach (Cunningham and Wells, Science, 244: 1081-1085 (1989); U.S. Pat. No. 5,834,250) was used to remove that portion of each side chain of IGF-1 beyond the beta carbon. The contribution of these atoms to the free energy of binding of the IGF-1 analog to IGFBP-1 or to IGFBP-3 was then assessed by competitive phage ELISA. In this assay, IGFBP-1 or IGFBP-3 is used to inhibit IGF-phage mutants from binding to an IGFBP-1- or IGFBP-3-coated immunosorbant plate.
(§2) Immunosorbent plates (Nunc, MAXISORP™, 96 wells) were coated with 100 μl/well of 1 μg/ml IGFBP-1 or IGFBP-3 in PBS buffer pH 7.2 at 4° C. overnight. The plates were then blocked with 0.5% TWEEN 20™/PBS (also used as binding buffer) for 2 hours at room temperature (proteinaceous blocking agents like bovine serum albumin were avoided to prevent potential IGF or IGFBP contamination). E. coli cells (XL1-Blue, Stratagene) freshly transformed with phagemid vector were grown overnight in 5 mL 2YT medium (Sambrook et al., supra) in the presence of M13-VCS helper phage (Stratagene). Phage particles were harvested and resuspended in PBS buffer as described in Lowman, H. B., “Phage Display of Peptide Libraries on Protein Scaffolds,” in Cabilly, S. (ed.), Combinatorial Peptide Library Protocols (Humana Press Inc.: Totowa, N.J., 1998), pp. 249-264. Then phage concentrations were normalized to yield a maximal ELISA signal of 0.2-0.4 for each mutant (Lowman, in Cabilly, S. (ed.), supra). Threefold serial dilutions of soluble competitor were prepared on non-absorbent microtiter plates (Nunc, F, 96 wells) with binding buffer (0.5% TWEEN 20™/PBS) containing phage at the previously determined concentrations. The dilution range of competitor protein extended over six orders of magnitude, starting at 5 μM for IGFBP-1 and 500 nM for IGFBP-3. After blocking, the plates containing immobilized target were washed with 0.05% TWEEN™/PBS buffer and subsequently incubated with 80 μl/well of the premixed phage-competitor solutions for 1 hour at room temperature. After washing, bound phage was detected with 80 μl/well of a solution containing a primary rabbit anti-phage polyclonal antibody and a secondary goat anti-rabbit monoclonal antibody-horseradish peroxidase conjugate in 0.5% TWEEN 20™/PBS. o-Phenylenediamine (Sigma) and tetramethylbenzidine (Kirkegaard and Perry) were used as chromogenic substrates, resulting in product detection at 492 and 450 nm, respectively. IC50 values were determined by fitting the binding data to a generic saturation curve (Lowman, in Cabilly, S. (ed.), supra). At least two individual clones of each IGF-1 mutant were assayed. Numbers in Table XIII represent mean±standard deviation of individually assessed IC50 values.

IGFBP-3 = target: T1, IGFBP-3 (Homo sapiens, UniProt P17936); assay: competitive phage ELISA of IGF-1 mutants, IGFBP-3; format: binding; conditions: for IC50: phage display, soluble IGFBP-3 competitor; for larger effects on IGFBP-3 than on IGFBP-1 binding / increase in IGFBP-3 binding: phage ELISA
T1 construct: made in house
Method: as §1, §2

IGFBP-1 [2] = target: T2, IGFBP-1 (Homo sapiens, UniProt P08833); assay: competitive phage ELISA of IGF-1 mutants, IGFBP-1; format: binding; set-up: made in house; host or cells: CHO cells; conditions: for IC50: phage display, soluble IGFBP-1 competitor; for increase in IGFBP-1 binding: phage ELISA
T2 sequence (P08833 26-259): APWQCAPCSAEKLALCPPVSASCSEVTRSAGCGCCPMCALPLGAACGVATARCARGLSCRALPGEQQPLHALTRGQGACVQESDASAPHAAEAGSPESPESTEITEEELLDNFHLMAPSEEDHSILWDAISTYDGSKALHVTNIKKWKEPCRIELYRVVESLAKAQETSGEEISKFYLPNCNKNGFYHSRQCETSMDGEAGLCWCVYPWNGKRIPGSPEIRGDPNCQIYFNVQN
Method: as §1, §2

[3] = IC50 mut/IC50 G1S-A70V, listed as des(1-2)-IGF-1

T1 sequence (P17936 28-291): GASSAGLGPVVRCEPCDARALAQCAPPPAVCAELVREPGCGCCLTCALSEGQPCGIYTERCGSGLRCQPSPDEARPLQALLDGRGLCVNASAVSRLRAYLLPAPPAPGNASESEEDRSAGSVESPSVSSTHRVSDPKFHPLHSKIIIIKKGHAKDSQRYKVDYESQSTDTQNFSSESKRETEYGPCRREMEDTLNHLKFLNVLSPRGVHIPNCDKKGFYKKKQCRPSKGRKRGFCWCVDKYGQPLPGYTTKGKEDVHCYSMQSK

| Substance | IC50 (IGFBP-3) [nM] | IC50 (IGFBP-1 [2]) [nM] | larger effects on IGFBP-3 than on IGFBP-1 binding (IGFBP-3) | increase in IGFBP-3 binding (IGFBP-3) | increase in IGFBP-1 binding (IGFBP-1 [2]) | IGFBP-3 relative IC50 (IGFBP-3; [3]) | IGFBP-1 Relative IC50 (IGFBP-1 [2]; [3]) | relative specificity (IGFBP-1 [1]) |
| --- | --- | --- | --- | --- | --- | --- | --- | --- |
| G19A: IGF-1 single alanine mutant | 0.9 ± 0.28 | 11 ± 2.3 |  |  |  |  |  | 1.1 |
| S51A: IGF-1 single alanine mutant | 0.65 ± 0.35 | 13.4 ± 0.4 |  |  |  |  |  | 1.9 |
| E9A: IGF-1 single alanine mutant | 1.32 ± 0.3 | 8.6 ± 0.6 | about 2 fold |  |  |  |  | 0.6 |
| I43A: IGF-1 single alanine mutant | 1.17 ± 0.07 | 31.3 ± 4.1 |  |  |  |  |  | 2.4 |
| L54A: IGF-1 single alanine mutant | 1.83 ± 0.91 | 23.1 ± 12 |  |  |  |  |  | 1.2 |
| L10A: IGF-1 single alanine mutant | 3.55 ± 0.33 | 311 ± 87 |  |  |  |  |  |  |
| Q40A: IGF-1 single alanine mutant | 0.56 ± 0.03 | 10.2 ± 0.9 |  |  |  |  |  | 1.7 |
| L64A: IGF-1 single alanine mutant | 0.93 ± 0.03 | 12.1 ± 3.3 |  |  |  |  |  | 1.2 |
| D53A: IGF-1 single alanine mutant | 1.05 ± 0.11 | 15.3 ± 2.8 |  |  |  |  |  | 1.6 |
| R37A: IGF-1 single alanine mutant | 0.75 ± 0.08 | 12.3 ± 0.1 |  |  |  |  |  | 1.5 |
| S69A: IGF-1 single alanine mutant | 0.71 ± 0.62 | 12.8 ± 2.3 |  |  |  |  |  | 1.3 |
| Y31A: IGF-1 single alanine mutant | 0.73 ± 0.1 | 6.8 ± 0.5 |  |  |  |  |  | 0.9 |
| K65A: IGF-1 single alanine mutant | 0.69 ± 0.05 | 12.4 ± 0.6 |  |  |  |  |  | 1.6 |
| S35A: IGF-1 single alanine mutant | 0.47 ± 0.01 | 11.7 ± 0.6 |  | approximately 2 fold |  |  |  | 2.3 |
| R56A: IGF-1 single alanine mutant | 1 ± 0.19 | 13.1 ± 1.8 |  |  |  |  |  | 1.2 |
| V70A: single mutant of G1S-A70V IGF-1 restoring A70 |  |  |  |  |  |  |  | 2.6 |
| G22A: IGF-1 single alanine mutant | 2.07 ± 0.11 | 15.9 ± 2.8 |  |  |  |  |  | 0.7 |
| S1G: single mutant of G1S-A70V IGF-1 restoring G1 |  |  |  |  |  |  |  | 1.0 |
| K68A: IGF-1 single alanine mutant | 0.76 ± 0.23 | 10.5 ± 2.8 |  |  |  |  |  | 1.3 |
| V17A: IGF-1 single alanine mutant | 3.67 ± 1.02 | 42.9 ± 3.2 |  |  |  |  |  | 1.1 |
| S34A: IGF-1 single alanine mutant | 1.65 ± 0.21 | 9.5 ± 0.7 | about 2 fold |  |  |  |  | 0.5 |
| E3A: IGF-1 single alanine mutant | 1.05 ± 0.08 | 278 ± 86 |  |  |  |  |  |  |
| Y60A: IGF-1 single alanine mutant | 0.52 ± 0.01 | 6.6 ± 1.8 |  |  |  |  |  | 1.2 |
| D12A: IGF-1 single alanine mutant | 1.49 ± 0.38 | 4.3 ± 0.8 | about 2 fold |  | approximately 2 fold |  |  | 0.3 |
| Q15A: IGF-1 single alanine mutant | 1.26 ± 0.41 | 13.9 ± 0.9 |  |  |  |  |  | 1.0 |
| F23A: IGF-1 single alanine mutant | 2.18 ± 0.01 | 10.9 ± 1.9 | about 2 fold |  |  |  |  | 0.5 |
| D20A: IGF-1 single alanine mutant | 1.11 ± 0.06 | 8.4 ± 4.1 |  |  |  |  |  | 0.7 |

More lines, main results first:

| IC50 (IGFBP-3) [nM] | IC50 (IGFBP-1 [2]) [nM] | larger effects on IGFBP-3 than on IGFBP-1 binding (IGFBP-3) | increase in IGFBP-3 binding (IGFBP-3) | increase in IGFBP-1 binding (IGFBP-1 [2]) | IGFBP-3 relative IC50 (IGFBP-3; [3]) | IGFBP-1 Relative IC50 (IGFBP-1 [2]; [3]) | Substance | relative specificity (IGFBP-1 [1]) |
| --- | --- | --- | --- | --- | --- | --- | --- | --- |
| 1.01 ± 0.24 | 9.1 ± 1 |  |  |  |  |  | S33A: IGF-1 single alanine mutant | 0.8 |
| 1.03 ± 0.47 | 11.9 ± 1.8 |  |  |  |  |  | E58A: IGF-1 single alanine mutant | 1.1 |
| 0.66 ± 0.35 | 12.8 ± 0.1 |  |  |  |  |  | K27A: IGF-1 single alanine mutant | 1.8 |
| 0.94 ± 0.28 | 7.9 ± 2.1 |  |  |  |  |  | E46A: IGF-1 single alanine mutant | 0.8 |
| 1.78 ± 0.56 | 21.8 ± 5.6 |  |  |  |  |  | L57A: IGF-1 single alanine mutant | 1.1 |
| 2.53 ± 0.76 | 13.3 ± 2.9 | about 2 fold |  |  |  |  | Y24A: IGF-1 single alanine mutant | 0.5 |
| 0.9 ± 0.07 | 9.1 ± 1.8 |  |  |  |  |  | N26A: IGF-1 single alanine mutant | 0.9 |
| 0.43 ± 0.06 | 13.7 ± 3.1 |  | approximately 2 fold |  |  |  | T41A: IGF-1 single alanine mutant | 2.9 |
| 1.53 ± 0.22 | 55.3 ± 11.6 |  |  |  |  |  | L5A: IGF-1 single alanine mutant | 3.3 |
| 4.58 ± 0.28 | > 1000 |  |  |  |  |  | G7A: IGF-1 single alanine mutant |  |
| 0.74 ± 0.14 | 13.1 ± 1.8 |  |  |  |  |  | M59A: IGF-1 single alanine mutant | 1.6 |
| 0.81 ± 0.18 | 11 ± 3.7 |  |  |  |  |  | P2A: IGF-1 single alanine mutant | 1.2 |
| 0.9 ± 0.04 | 36.7 ± 1.1 |  |  |  |  |  | L14A: IGF-1 single alanine mutant | 3.7 |
| 0.58 ± 0.01 | 7.1 ± 1.6 |  |  |  |  |  | R21A: IGF-1 single alanine mutant | 1.1 |
| 0.53 ± 0.2 | 15.7 ± 3.4 |  |  |  |  |  | G42A: IGF-1 single alanine mutant | 2.7 |
| 0.76 ± 0.28 | 10.9 ± 1.3 |  |  |  |  |  | G32A: IGF-1 single alanine mutant | 1.3 |
| 1.03 ± 0.06 | 18.8 ± 5.4 |  |  |  |  |  | V44A: IGF-1 single alanine mutant | 1.7 |
| 1.41 ± 0.05 | 9.3 ± 1.4 |  |  |  |  |  | P28A: IGF-1 single alanine mutant | 0.6 |
| 0.69 ± 0.21 | 4.7 ± 0.7 | about 2 fold |  | approximately 2 fold |  |  | D45A: IGF-1 single alanine mutant | 0.6 |
| 1.23 ± 0.16 | 7.3 ± 2.4 | about 2 fold |  |  |  |  | T29A: IGF-1 single alanine mutant | 0.5 |
| 0.57 ± 0.12 | 9.4 ± 3.2 |  |  |  |  |  | P66A: IGF-1 single alanine mutant | 1.5 |
| > 100 | > 1000 |  |  |  |  |  | P63A: IGF-1 single alanine mutant |  |
| 0.58 ± 0.11 | 7.1 ± 1.7 |  |  |  |  |  | G30A: IGF-1 single alanine mutant | 1.1 |
| 0.66 ± 0.03 | 9 ± 2.3 |  |  |  |  |  | R55A: IGF-1 single alanine mutant | 1.2 |
|  |  |  |  |  | no difference in affinity | no difference in affinity | Des(1-2)-IGF: IGF-1 mutant lacking residues 1 and 2 | 0.9 |
